B1: CCDC6 (parent)
chain: ASVTIQARAEQEEEFISNTLFKKI
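Further: lentivirally expressed fusions sorted by FACS into six bins by GFP to DsRed ratio, PSI derived from sequencing read proportions per bin multiplied by bin number.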

Variants of B1 are the subject of this series. Nature of the series: protein stability index of a GFP-peptide fusion (GPS, HEK-293T) (PSI 1-6); higher = more stable. The conditions noted are these: c terminus: a fixed tail appended.
Regarding ASVTIQARAWQEEEFISNTLFKKI [E10W], the protein stability index is 1.54.

As for ASVTIQARAVQEEEFISNTLFKKI [E10V], the protein stability index was 2.27.

As to ASVTIQARASQEEEFISNTLFKKI [E10S], the protein stability index came to 3.14.

Regarding ASVTIQARAQQEEEFISNTLFKKI [E10Q], the protein stability index worked out at 3.22.

On to ASVTIQARARQEEEFISNTLFKKI [E10R], for which the protein stability index is 2.95.

In the case of ASVTIQARAPQEEEFISNTLFKKI [E10P], the protein stability index came out at 2.83.

Regarding ASVTIQARAYQEEEFISNTLFKKI [E10Y], the protein stability index amounted to 2.03.

Consider ASVTIQARATQEEEFISNTLFKKI [E10T], for which the protein stability index is 3.22.

In the case of ASVTIQARAEQEEERISNTLFKKI [F15R], the protein stability index came out at 4.09.

Turning to ASVTIQARAEQEEEIISNTLFKKI [F15I], the protein stability index came to 4.18.

Take ASVTIQARAEQEEEMISNTLFKKI [F15M]: the protein stability index stood at 3.67.

Take ASVTIQARAEQEEEDISNTLFKKI [F15D]: the protein stability index was 4.68.

For ASVTIQARAEQEEEWISNTLFKKI [F15W], the protein stability index worked out at 2.98.

Take ASVTIQARAEQEEESISNTLFKKI [F15S]: the protein stability index was 4.03.

Take ASVTIQARAEQEEEEISNTLFKKI [F15E]: the protein stability index was 4.69.

With ASVTIQARAEQEEEVISNTLFKKI [F15V], the protein stability index amounted to 4.52.

With ASVTIQARAEQEEEKISNTLFKKI [F15K], the protein stability index was 4.13.

In the case of ASVTIQARAEQEEEAISNTLFKKI [F15A], the protein stability index is 4.49.

Regarding ASVTIQARAEQEEEQISNTLFKKI [F15Q], the protein stability index came out at 4.46.

On to ASVTIQARAEQEEETISNTLFKKI [F15T], for which the protein stability index amounted to 4.52.

Consider ASVTIQARAEQEEEHISNTLFKKI [F15H], for which the protein stability index stood at 3.72.

Take ASVTIQARAEQEEEPISNTLFKKI [F15P]: the protein stability index stood at 4.61.

Turning to ASVTIQARAEQEEECISNTLFKKI [F15C], the protein stability index is 4.19.

As for ASVTIQARAEQEEELISNTLFKKI [F15L], the protein stability index was found to be 3.73.

Take ASVTIQARAEQEEENISNTLFKKI [F15N]: the protein stability index is 4.65.

In the case of ASVTIQARAEQEEEGISNTLFKKI [F15G], the protein stability index amounted to 4.4.

For the variant ASVTIQARAEQEEEYISNTLFKKI [F15Y], the protein stability index amounted to 3.78.

For ASVTIQARAEQEEEFISNTAFKKI [L20A], the protein stability index was 3.94.

With ASVTIQARAEQEEEFISNTDFKKI [L20D], the protein stability index is 4.76.

On to ASVTIQARAEQEEEFISNTFFKKI [L20F], for which the protein stability index came out at 3.46.

For the variant ASVTIQARAEQEEEFISNTEFKKI [L20E], the protein stability index amounted to 4.51.

In the case of ASVTIQARAEQEEEFISNTIFKKI [L20I], the protein stability index came out at 3.89.

For the variant ASVTIQARAEQEEEFISNTKFKKI [L20K], the protein stability index amounted to 4.15.

For the variant ASVTIQARAEQEEEFISNTMFKKI [L20M], the protein stability index came to 4.44.

ASVTIQARAEQEEEFISNTGFKKI [L20G]: the protein stability index amounted to 4.66.

Regarding ASVTIQARAEQEEEFISNTHFKKI [L20H], the protein stability index was 4.

In the case of ASVTIQARAEQEEEFISNTCFKKI [L20C], the protein stability index is 3.9.

With ASVTIQARAEQEWEFISNTLFKKI [E13W], the protein stability index came to 2.08.

As for ASVTIQARAEQEHEFISNTLFKKI [E13H], the protein stability index was 2.29.

As to ASVTIQARAEQEGEFISNTLFKKI [E13G], the protein stability index stood at 3.39.

ASVTIQARAEQEDEFISNTLFKKI [E13D]: the protein stability index is 3.54.

Take ASVTIQARAEQEAEFISNTLFKKI [E13A]: the protein stability index is 2.8.

ASVTIQARAEQEYEFISNTLFKKI [E13Y]: the protein stability index was determined as 2.

Take ASVTIQARAEQESEFISNTLFKKI [E13S]: the protein stability index came to 3.11.

As for ASVTIQARAEQEIEFISNTLFKKI [E13I], the protein stability index was 2.18.

With ASVTIQARAEQEVEFISNTLFKKI [E13V], the protein stability index worked out at 2.41.

In the case of ASVTIQARAEQENEFISNTLFKKI [E13N], the protein stability index is 3.16.

For ASVTIQARAEQELEFISNTLFKKI [E13L], the protein stability index stood at 2.38.

In the case of ASVTIQARAEQEMEFISNTLFKKI [E13M], the protein stability index turned out to be 2.58.

Take ASVTIQARAEQEQEFISNTLFKKI [E13Q]: the protein stability index was determined as 3.29.

As to ASVTIQARAEQEKEFISNTLFKKI [E13K], the protein stability index is 3.71.

Regarding ASVTIQARAEQEREFISNTLFKKI [E13R], the protein stability index is 3.18.

On to ASVTIQARAEQEPEFISNTLFKKI [E13P], for which the protein stability index was 3.4.

For the variant ASVTIQARAEQETEFISNTLFKKI [E13T], the protein stability index is 3.08.

For ASVTIQARAEQEFEFISNTLFKKI [E13F], the protein stability index turned out to be 2.23.

With ASVTIQARAEQECEFISNTLFKKI [E13C], the protein stability index came to 3.07.

On to ASVTIQARAEPEEEFISNTLFKKI [Q11P], for which the protein stability index was found to be 3.67.

Consider ASVTIQARAEHEEEFISNTLFKKI [Q11H], for which the protein stability index is 3.37.

ASVTIQARAEIEEEFISNTLFKKI [Q11I]: the protein stability index was determined as 2.39.

As to ASVTIQARAEWEEEFISNTLFKKI [Q11W], the protein stability index was 2.07.

In the case of ASVTIQARAELEEEFISNTLFKKI [Q11L], the protein stability index worked out at 2.97.

Turning to ASVTIQARAEAEEEFISNTLFKKI [Q11A], the protein stability index came out at 3.52.

Regarding ASVTIQARAESEEEFISNTLFKKI [Q11S], the protein stability index turned out to be 3.75.

Regarding ASVTIQARAEEEEEFISNTLFKKI [Q11E], the protein stability index is 4.13.

On to ASVTIQARAEGEEEFISNTLFKKI [Q11G], for which the protein stability index amounted to 3.49.

ASVTIQARAEMEEEFISNTLFKKI [Q11M]: the protein stability index is 2.29.

ASVTIQARAEVEEEFISNTLFKKI [Q11V]: the protein stability index stood at 2.56.

ASVTIQARAEREEEFISNTLFKKI [Q11R]: the protein stability index worked out at 2.83.

Turning to ASVTIQARAEDEEEFISNTLFKKI [Q11D], the protein stability index was determined as 3.99.

As to ASVTIQARAETEEEFISNTLFKKI [Q11T], the protein stability index was 3.4.

Consider ASVTIQARAEKEEEFISNTLFKKI [Q11K], for which the protein stability index was 3.4.

On to ASVTIQARAEYEEEFISNTLFKKI [Q11Y], for which the protein stability index amounted to 2.91.

Take ASVTIQARAECEEEFISNTLFKKI [Q11C]: the protein stability index stood at 2.97.

Regarding ASVTIQARAEFEEEFISNTLFKKI [Q11F], the protein stability index came to 2.07.

Consider ASVTIQARAENEEEFISNTLFKKI [Q11N], for which the protein stability index came out at 3.71.

As for ASVTIQARAEQDEEFISNTLFKKI [E12D], the protein stability index amounted to 3.67.

On to ASVTIQARAEQWEEFISNTLFKKI [E12W], for which the protein stability index came out at 2.21.

With ASVTIQARAEQSEEFISNTLFKKI [E12S], the protein stability index worked out at 2.95.

For ASVTIQARAEQVEEFISNTLFKKI [E12V], the protein stability index was found to be 2.19.

As for ASVTIQARAEQPEEFISNTLFKKI [E12P], the protein stability index was determined as 3.03.

Regarding ASVTIQARAEQIEEFISNTLFKKI [E12I], the protein stability index was determined as 1.69.

For ASVTIQARAEQFEEFISNTLFKKI [E12F], the protein stability index stood at 2.12.

As for ASVTIQARAEQLEEFISNTLFKKI [E12L], the protein stability index is 2.07.

As for ASVTIQARAEQREEFISNTLFKKI [E12R], the protein stability index was determined as 2.7.

For ASVTIQARAEQYEEFISNTLFKKI [E12Y], the protein stability index is 2.2.

As for ASVTIQARAEQGEEFISNTLFKKI [E12G], the protein stability index was determined as 2.94.

On to ASVTIQARAEQCEEFISNTLFKKI [E12C], for which the protein stability index was 2.35.

ASVTIQARAEQQEEFISNTLFKKI [E12Q]: the protein stability index turned out to be 3.27.

Take ASVTIQARAEQHEEFISNTLFKKI [E12H]: the protein stability index amounted to 2.83.

ASVTIQARAEQNEEFISNTLFKKI [E12N]: the protein stability index worked out at 3.06.

As to ASVTIQARAEQMEEFISNTLFKKI [E12M], the protein stability index worked out at 1.9.

As to ASVTIQARAEQAEEFISNTLFKKI [E12A], the protein stability index worked out at 2.58.

As for ASVTIQARAEQKEEFISNTLFKKI [E12K], the protein stability index was determined as 3.17.

On to ASVTIQARAEQTEEFISNTLFKKI [E12T], for which the protein stability index came to 2.68.
